Square brackets hold non-standard residues; d marks the D form. Ends that are not written are not given here.

This assay deals with T1, mouse ADAMTS7 (Mus musculus, UniProt Q68SA9, E373Q).
T1 construct: Full-length mouse Adamts7 1-1857 (Uniprot Q68SA9, WT or E373Q catalytic mutant); expressed in transfected cells; host or cells: Human Coronary Artery Smooth Muscle Cells (HCA-SMC, Lonza), adenovirus 50 MOI
T1 sequence (Q68SA9 221-1657 E373Q): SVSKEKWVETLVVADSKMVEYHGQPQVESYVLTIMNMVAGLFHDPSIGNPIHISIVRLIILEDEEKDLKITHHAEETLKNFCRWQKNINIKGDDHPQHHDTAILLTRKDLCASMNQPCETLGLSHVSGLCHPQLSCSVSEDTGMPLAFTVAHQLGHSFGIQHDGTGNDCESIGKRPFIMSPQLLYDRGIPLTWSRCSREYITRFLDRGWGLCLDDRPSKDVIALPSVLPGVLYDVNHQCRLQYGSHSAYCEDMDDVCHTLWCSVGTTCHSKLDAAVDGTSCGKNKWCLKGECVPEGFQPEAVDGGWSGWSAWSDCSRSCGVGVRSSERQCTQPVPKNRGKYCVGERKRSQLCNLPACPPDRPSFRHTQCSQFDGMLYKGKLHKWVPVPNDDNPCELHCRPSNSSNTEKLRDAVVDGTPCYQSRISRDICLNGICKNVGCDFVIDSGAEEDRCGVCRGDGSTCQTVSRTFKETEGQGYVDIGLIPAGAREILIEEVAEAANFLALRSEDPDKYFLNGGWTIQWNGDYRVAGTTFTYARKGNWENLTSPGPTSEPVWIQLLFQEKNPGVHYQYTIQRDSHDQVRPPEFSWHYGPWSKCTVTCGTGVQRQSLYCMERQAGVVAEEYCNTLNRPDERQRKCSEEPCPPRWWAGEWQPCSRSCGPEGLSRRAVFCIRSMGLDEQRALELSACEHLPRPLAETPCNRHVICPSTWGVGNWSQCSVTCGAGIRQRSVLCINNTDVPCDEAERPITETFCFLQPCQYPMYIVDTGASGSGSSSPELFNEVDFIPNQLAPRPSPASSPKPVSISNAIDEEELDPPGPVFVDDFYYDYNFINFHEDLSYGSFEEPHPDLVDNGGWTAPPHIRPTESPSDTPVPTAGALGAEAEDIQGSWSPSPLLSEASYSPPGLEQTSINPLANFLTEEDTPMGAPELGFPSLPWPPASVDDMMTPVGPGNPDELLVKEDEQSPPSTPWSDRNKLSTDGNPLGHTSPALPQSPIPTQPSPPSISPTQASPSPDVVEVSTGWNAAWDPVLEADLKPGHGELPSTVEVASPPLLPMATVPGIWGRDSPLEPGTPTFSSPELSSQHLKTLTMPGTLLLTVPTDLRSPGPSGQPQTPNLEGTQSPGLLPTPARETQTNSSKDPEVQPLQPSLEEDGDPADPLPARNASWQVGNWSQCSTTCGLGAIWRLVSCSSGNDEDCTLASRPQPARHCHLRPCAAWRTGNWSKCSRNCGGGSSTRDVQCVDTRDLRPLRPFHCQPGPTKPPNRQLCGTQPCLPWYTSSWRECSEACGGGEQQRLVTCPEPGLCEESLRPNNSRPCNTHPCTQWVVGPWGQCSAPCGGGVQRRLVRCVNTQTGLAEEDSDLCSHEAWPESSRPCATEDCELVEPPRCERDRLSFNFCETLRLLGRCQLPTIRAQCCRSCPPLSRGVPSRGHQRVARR
The assay can be described thus: TMT10 TAILS N-terminomics, HUVEC experiment (process replicates, trypsin/AspN digest). The format is cell-based, human. Particulars: HUVEC TAILS HC; log fold change of N-terminal peptide, Ad-mADAMTS7 EQ over Luc. The essentials: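 Full-length mouse ADAMTS7 (WT or E373Q mutant, C-terminal 3xFLAG) or luciferase was transduced via adenovirus, 50 MOI, into HCA-SMC (SMC1, SMC2) or HUVEC. SMC1: pooled media, technical triplicates 400 ug; SMC2: process triplicates 300 ug; HUVEC: process triplicates 200 ug, bFGF2 10 ng/ml.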
In the case of “ECM1_108 (QEAVPLQK; listed as Homo sapiens)”, the logFC.mEQ.over.Luc was determined as 0.09.
In turn, “EFEMP1_125_ (VAGPEMQTGR; listed as Homo sapiens)” returned a logFC.mEQ.over.Luc of −0.11.
For the substance “ERAP2_718 (ISENLKR; listed as Homo sapiens)”, the logFC.mEQ.over.Luc is 0.64.
For the substance “EWSR1_87 (YSQPVQGYGTGAY; listed as Homo sapiens)”, the logFC.mEQ.over.Luc is on record as −0.05.
“FN1_34 ([code q]QMVQPQSPVAVSQSKPGCY; not fully specified (residue 3); listed as Homo sapiens)”: the logFC.mEQ.over.Luc is −0.06.
With “FN1_35 ([code q]MVQPQSPVAVSQSKPGCY; not fully specified (residue 2); listed as Homo sapiens)” the figure was −0.27; with “FN1_293 (VYQPQPHPQPPPYGHCVT; listed as Homo sapiens)”, −0.29; with “FN1_607 (SSSGPVEVFIT; listed as Homo sapiens)”, −0.40.
Then “FN1_1144 (TPGVEYVYTIQVLR; listed as Homo sapiens)”, with −0.19.
The substance “FN1_1780 (LQGLRPGSEYTVSVVALH; listed as Homo sapiens)” yielded a logFC.mEQ.over.Luc of −0.47.
Substance “FN1_1805 (LIGTQSTAIPAPT; listed as Homo sapiens)” gave a logFC.mEQ.over.Luc of 0.05.
Turning to “FN1_2113 (FVTHPGY; listed as Homo sapiens)”, the logFC.mEQ.over.Luc is listed as −0.62.
Consider “FSTL1_290 (LQKHQETA; listed as Homo sapiens)”, for which the logFC.mEQ.over.Luc is listed as −0.24.
Substance “LOX_125 (FQAGYSTSR; listed as Homo sapiens)” returned a logFC.mEQ.over.Luc of 0.24.
